Results published in patent US20240352438A1, “MEANS AND METHODS FOR DETOXIFYING OCHRATOXIN A” (DSM Austria GmbH, priority 2021, published 2024).
Numbering of substitutions follows the chain as printed.

B1: 246 (protein)
chain: MTTRTRILTAFLSLLAANACAADAAPAAPHTVVLRAARMFDGASGKLVDHPQLTIVGNKIVRIAQGDKAEVPAGAEVVDLGDATLLPGFIDAHVHLSGQSSDNWYGDFFDNMMRFPAEQALYGAYYARITLEAGFTSVRDVGSTDWVALGLRNAIDAGKVPGPRMLVSNYAVGSTGGHADQDPIPPHKLPLAGPLQGVCNGPEECRAAVRYQIKYGANVIKFMPSGGVLSLSDPVDAPELSQDEMNAVIGESHAWGRKVAAHAHGDKAAKMAVAAGVDSIEHGSFIEDDTLRAMKAKNVYLVPTISAIAHVEEKIGTFPPVIAEKGRAAAAHLRQTFRNAVQIGVPIALGTDAGVGAHGSNAREFRYMVENGLTPAQALLAGTANAARLLGTFDRVGTLEAGKLADVVAVPGNPIADITVTERPLFVMKDGVVVRRDAVR
modifications: exemplary polypeptide
B2: 247 (protein)
chain: B1 chain with N339S
modifications: exemplary polypeptide
B3: 248 (protein)
chain: B1 chain with N339H, A353S
modifications: exemplary polypeptide
B4: 253 (protein)
chain: B1 chain with N339H, N361Q
modifications: exemplary polypeptide
B5: 256 (protein)
chain: B1 chain with H187N, K188R, N339H
modifications: exemplary polypeptide
B6: 259 (protein)
chain: B1 chain with H310D, E313A, N339H
modifications: exemplary polypeptide
B7: 260 (protein)
chain: B1 chain with H310E, E313A, N339H
modifications: exemplary polypeptide
B8: 261 (protein)
chain: B1 chain with G98S, N339H
modifications: exemplary polypeptide
B9: 262 (protein)
chain: B1 chain with G98V, N339H
modifications: exemplary polypeptide
B10: 268 (protein)
chain: B1 chain with M112F, N339H
modifications: exemplary polypeptide
B11: 272 (protein)
chain: B1 chain with Q119E, N339H
modifications: exemplary polypeptide
B12: 273 (protein)
chain: B1 chain with Q119H, N339H
modifications: exemplary polypeptide
B13: 274 (protein)
chain: B1 chain with Q119K, N339H
modifications: exemplary polypeptide
B14: 275 (protein)
chain: B1 chain with Q119M, N339H
modifications: exemplary polypeptide
B15: 280 (protein)
chain: B1 chain with V198T, N339H
modifications: exemplary polypeptide
B16: 281 (protein)
chain: B1 chain with L231F, N339H
modifications: exemplary polypeptide
B17: 282 (protein)
chain: B1 chain with V235A, N339H
modifications: exemplary polypeptide
B18: 284 (protein)
chain: B1 chain with V235F, N339H
modifications: exemplary polypeptide
B19: 285 (protein)
chain: B1 chain with V235L, N339H
modifications: exemplary polypeptide
B20: 286 (protein)
chain: B1 chain with L231E, V321T, N339H
modifications: exemplary polypeptide
B21: 287 (protein)
chain: B1 chain with L229I, I308A, N339H
modifications: exemplary polypeptide
B22: 288 (protein)
chain: B1 chain with I308A, A329V, N339H
modifications: exemplary polypeptide
B23: 289 (protein)
chain: B1 chain with I308A, N339H, G356F
modifications: exemplary polypeptide
B24: 290 (protein)
chain: B1 chain with I308A, N339H, G356P
modifications: exemplary polypeptide
B25: 291 (protein)
chain: B1 chain with I308A, N339H, G356Y
modifications: exemplary polypeptide

Assay: OTA detoxification activity assay (specific activity, fluorescence reduction ex/em 390/450 nm)
Format: biochemical
Details: pH 6.0; SEQ ID NO: 1 = 100%
Outline: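 Recombinant enzyme preparation with 200 ng/mL OTA in 100 mM sodium phosphate, at pH 6.0 and pH 7.5, 37° C. Degradation followed as the fall in fluorescence at ex/em 390/450 nm. Specific activity taken from the initial linear slope; one unit degrades 1 μmol OTA per min at a starting OTA of […].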

| Molecule | Specific OTA detoxification activities in % compared to the enzyme of SEQ ID NO: 1, pH 6.0 |
| --- | --- |
| B1 | 113% |
| B2 | 80% |
| B3 | 131% |
| B4 | 93% |
| B5 | 116% |
| B6 | 56% |
| B7 | 83% |
| B8 | 78% |
| B9 | 116% |
| B10 | 25% |
| B11 | 121% |
| B12 | 134% |
| B13 | 100% |
| B14 | 71% |
| B15 | 70% |
| B16 | 90% |
| B17 | 77% |
| B18 | 48% |
| B19 | 28% |
| B20 | 39% |
| B21 | 151% |
| B22 | 29% |
| B23 | 66% |
| B24 | 160% |
| B25 | 77% |

Same assay, conditions: pH 7.5; SEQ ID NO: 1 = 100%

| Molecule | Specific OTA detoxification activities in % compared to the enzyme of SEQ ID NO: 1, pH 7.5 |
| --- | --- |
| B1 | 89% |
| B2 | 100% |
| B3 | 91% |
| B4 | 87% |
| B5 | 101% |
| B6 | 54% |
| B7 | 81% |
| B8 | 95% |
| B9 | 106% |
| B10 | 39% |
| B11 | 86% |
| B12 | 76% |
| B13 | 100% |
| B14 | 85% |
| B15 | 50% |
| B16 | 50% |
| B17 | 41% |
| B18 | 23% |
| B19 | 21% |
| B20 | 17% |
| B21 | 105% |
| B22 | 31% |
| B23 | 106% |
| B24 | 122% |
| B25 | 79% |

Assay: Enzymatic activity comparison: activity remaining after 65° C. for 10 min at pH 6.0, relative to SEQ ID NO: 1
Format: physicochemical
Details: not given
Procedure: To compare the temperature behavior and thermostability of selected enzymes to one another, enzyme was incubated at 65° C. for 10 min at pH 6.0. The enzymatic activity remaining after incubation was compared to the remaining activity of the enzyme of SEQ ID NO: 1 after incubation, the latter being set to 100%, see Table 16.

| Molecule | Enzymatic activity remaining after incubation, compared to SEQ ID NO: 1 (set to 100%) |
| --- | --- |
| B1 | 27% |
| B2 | 53% |
| B3 | 38% |
| B4 | 22% |
| B5 | 36% |
| B6 | 41% |
| B7 | 27% |
| B8 | 60% |
| B9 | 40% |
| B10 | 28% |
| B11 | 41% |
| B12 | 34% |
| B13 | 32% |
| B14 | 25% |
| B15 | 31% |
| B16 | 13% |
| B17 | 28% |
| B18 | 13% |
| B19 | 63% |
| B20 | 33% |
| B21 | 28% |
| B22 | 90% |
| B23 | 63% |
| B24 | 53% |
| B25 | 34% |
